From US20230263864A1, “THERAPEUTIC MICROBES” (Danmarks Tekniske Universitet, priority 2020, published 2023)

B1: Hiracin JM79: bacteriocin (SEQ ID NO. 27) co-expressed by L-DOPA producing E. coli Nissle (protein)
chain: MKKTAIAIAVALAGFATVAQAATYYGNGLYCNKEKCWVDWNQAKGEIGKIIVNGWVNHGPWAPRR
modifications: Hiracin JM79
B2: ubericin A: bacteriocin (SEQ ID NO. 29) co-expressed by L-DOPA producing E. coli Nissle (protein)
chain: MKKTAIAIAVALAGFATVAQAKTVNYGNGLYCNQKKCWVNWSETATTIVNNSIMNGLTGGNAGWHSGGRA
modifications: Ubericin A
B3: Enterocin A: bacteriocin (SEQ ID NO. 31) co-expressed by L-DOPA producing E. coli Nissle, pMUT-DOPA_5-EntA (protein)
chain: MKKTAIAIAVALAGFATVAQATTHSGKYYGNGVYCTKNKCTVDWAKATTCIAGMSIGGFLGGAIPGKC
modifications: Enterocin A

Key:
[1] = Oral gavage of engineered E. coli Nissle in mice, metabolites and body weight; assay type: in vivo, mice (NMRI); settings: carbidopa 10 mg/kg IP every 24 h
Experimental: Female mice (NMRI, supplied by Taconic Biosciences, 6 weeks of age) were group-housed on a 12-h light:dark cycle at constant temperature with ad libitum access to food and water in a Specific Pathogen Free (SPF) facility. Upon delivery, mice were given 5 days to adjust to new location. Cohort size was 8 animals, and 4 different cohorts were tested, see below. All animals received Streptomycin (5 g/L) in the drinking water to ensure colonization, 3 days before being gavaged and throughout the experiment. A single oral gavage of 10^8 cells was administered of either L-DOPA-producing (called ‘EcN_DOPA’) or a control E. coli Nissle (‘EcN_CTRL’) strain without expression of the tyrosine hydroxylase gene. Samples were taken for the following 7 days, after which animals were euthanized and final blood samples and gut content samples were collected. […] Fresh fecal samples were collected daily for 7 days to quantify colonization and metabolite levels. […]
In vivo sample analysis: Plasma, tissue samples, gut content and fecal samples were analyzed for DOPA-derived and related serotonin metabolites using LC-MS. […] Gut and brain tissue was also frozen for real-time quantitative PCR (RT-qPCR) and metabolite analysis. Quantification of metabolites from in vivo samples was performed as described above (‘LC-MS analysis’).

[2] = tested on: E. faecalis; experiment: Bacteriocin assay (halos on BHI agar); assay type: cell-based; settings: overnight 37 C, FIG. 6C
Experimental: Three colonies of each E. coli Nissle strain were inoculated in 5 ml of BHI broth and grown overnight at 37° C. in a shaking incubator. The following day, 1 ml of the culture was washed with PBS buffer once and 10 μl were used to spot the strains on top of a BHI agar plate. After drying, top BHI agar was mixed with 500 μl of previously grown E. faecalis, and was placed on top of the BHI agar containing the dried spots of the E. coli strains. Plates were dried for 10 minutes and then incubated at 37° C. overnight.

Molecule	Plasma serotonin levels ([1]; EcN_DOPA p=0.08)	Serotonin (5-HT) concentrations in urine ([1]; single oral gavage 10^8 cells, EcN_DOPA vs control strain p=0.06)	inhibition of E. faecalis around EcN spots [2]
C[C@@](Cc1ccc(O)c(O)c1)(NN)C(=O)O [carbidopa]	reduced	decreased below detection level	–
B1	–	–	halos of inhibition
B2	–	–	halos of inhibition
B3	–	–	halos of inhibition
